Measured values taken from patent publication US20110212108A1, “NEUREGULIN/ERBB SIGNALING AND INTEGRIN” (THE REGENTS OF THE UNIVERSITY OF CALIFORNIA, priority 2008, published 2011).
“Also recorded” adds a separate entry of the source.

B1: WT NRG1α (175-241): wild type human neuregulin 1 fragment, residues 175-241 of SEQ ID NO:4 (SEQ ID NO:5), entire EGF-like motif and α domain (protein)
chain: GTSHLVKCAEKEKTFCVNGGECFMVKDLSNPSRYLCKCQPGFTGARCTENVPMKVQNQEKAEELYQK
modifications: integrin-binding site within human neuregulin, residues 175-241of human neuregulin 1alpha, long version
B2: 3KE (175-241): NRG1α (175-241) with Lys181/Lys185/Lys187 mutated to Glu, SEQ ID NO:6 (3KE, long version) (protein)
chain: GTSHLVECAEEEETFCVNGGECFMVKDLSNPSRYLCKCQPGFTGARCTENVPMKVQNQEKAEELYQK
modifications: integrin-binding site within human neuregulin, residues 175-241of human neuregulin 1alpha, long version, 3KE mutant

How the values were obtained:
B-16 F10 Cells = test: B16F10 cell proliferation, MTS assay; assay type: cell-based, mouse; settings: 24 hours
Method: FIG. 10. […] B-16 F10 Cells were starved for 5 days in DMEM+1% FBS medium, and then added 3KE (175-222) and WT (175-222) NRG1 at indicated concentrations for 24 hours by MTS assays. P=0.0354 (between wt and 3KE+wt) and P<0.0001 (between wt and 3KE) by 2-way ANOVA.
(§1) Cell proliferation: cells were starved by culturing DMEM with low-level FCS (e.g., 0.4%) overnight and then treated with the wt or mutant NRG1 (175-222) (up to 100 ng/ml). The cells were harvested in 15 min to 6 h after stimulation and cell lysates analyzed by western blotting with antibodies specific to signaling molecules. Alternatively, cells were cultured for 24-48 h after stimulation for testing proliferation or cell viability by MTS assays. Statistical analysis and calculation of kinetic constants were performed using Prism software (Graphpad).

[1] = test system: Human MCF-7 breast cancer cells; test: MCF-7 cell proliferation, MTS assay; assay type: cell-based; settings: serum-starved overnight, cultured 48 h, P=0.0018
Method: FIG. 12. Effect of wt and 3KE NRG1 (175-222) on the proliferation of MCF-7 cells. Human MCF-7 breast cancer cells were serum-starved overnight and cultured 48 h with wt or mutant GST-NRG1 (175-222). Cell proliferation was measured by using MTS assays. […] P=0.0018 by 2-way ANOVA.
as §1

CHO cells = test: ERK1/2 activation in CHO cells, Western blotting; assay type: cell-based, Chinese hamster; settings: serum-starved
Method: FIG. 14. […] ErbB4 was stably expressed in CHO cells (designated ErbB4-CHO cells). ErbB4 was detected in a cell lysate of ErbB4-CHO cells by western blotting (top). Serum-starved CHO or ErbB4-CHO cells were stimulated with wt NRG1 (175-222) or the 3KE (175-222) mutant and ERK1/2 activation was measured by Western blotting.
CHO cells express endogenous ErbB2 and ErbB3, but no ErbB4. CHO cells that express ErbB4 were generated by transfecting ErbB4 expression vector (designated ErbB4-CHO). […] It is therefore believed that the direct binding of integrin […] the Ras-MAP kinase pathway in ErbB4-CHO cells.

[2] = target: T1, CHO cells that express human α6β4 (Homo sapiens, UniProt P16144+P23229); test: Cell adhesion assay, α6β4-CHO cells; assay type: cell-based; settings: DMEM, 1 h at 37° C.
T1 construct: expressed in transfected cells; host or cells: CHO
Method: FIG. 17. CHO cells that express human α6β4 adhered to wt NRG1 (175-222) but not to the 3KE (175-222) mutant. Wells of 96-well microtiter plate were coated with wt or 3KE mutant NRG1 (175-222) and incubated with α6β4-CHO or β1-CHO cells in DMEM for 1 h at 37° C. as described herein. Bound cells were quantified.

αvβ3-ErbB3 complex = target: T2, αvβ3-ErbB3 complex (Homo sapiens, UniProt P05106+P06756+P21860); test: Co-immunoprecipitation of integrin αvβ3 and ErbB3 in MCF-7 cells; assay type: cell-based; settings: for Co-precipitation of integrin β3 with ErbB3 in MCF-7 cells: 5 nM, 5-30 min
T2 construct: endogenous in cells; host or cells: MCF-7
Method: FIG. 21. WT NRG1α (175-241) induced co-precipitation of integrin αvβ3 and ErbB3, while 3KE (175-241) is defective in this function. a) MCF-7 cells were serum-starved overnight and stimulated with WT or 3KE NRG1α (175-241) at indicated time points. In the present invention, 1 mg protein of cell lysate was used for immuno-precipitation of the αvβ3-ErbB3 complex with anti-ErbB3 antibody Immunoprecipitated materials were analyzed by Western blotting using antibodies specific to ErbB3, phosphorylated ErbB3, or integrin β3. The levels of ErbB3 phosphorylation were less with the 3KE mutant (175-241). Integrin αvβ3 was co-immuno-precipitated with the ErbB3 in 5-30 min upon stimulation with WT NRG1α (175-241), while the 3KE (175-241) mutant was defective in this function. b) Levels of β3 coprecipitation. In the present invention, the levels of β3 co-precipitation from digital images was quantified using ImageJ. The data are normalized with time 0 as 1 from two independent experiments.
Five minutes to 3 h after treatment with 5 nM WT or 3KE mutant NRG1α (175-241), MCF-7 cells were washed with ice-cold PBS and lysed with lysis buffer. The cell lysate was incubated with anti-ErbB3 overnight at 4° C. The immune complex was recovered by incubating with protein A Sepharose (GE Healthcare) for 1 hour at 4° C. and washed three times with wash buffer (20 mM HEPES (pH 7.4), 100 mM NaCl, 10% Glycerol, 0.5% NP-40, 1 mM MgCl2, 5 mM EDTA, 0.5% Triton X-100, 1 mM phenylmethylsulfonyl fluoride, 20 mM NaF, 1 mM Na3VO4, protease inhibitor cocktail (Sigma-Aldrich)). The immunoprecipitates were analyzed by western blotting with antibodies specific to integrin β3.

MCF-7 cells = test: Western blot analysis of NRG1 signaling in MCF-7 cells; assay type: cell-based, human; settings: 2.5 nM
Method: FIG. 22. Effect of the 3KE mutation on NRG1 signaling. The 3KE mutant of NRG1α (175-241) is defective in inducing ErbB3 phosphorylation, AKT activation and ERK1/2 activation. MCF-7 cells were serum-starved overnight and stimulated with 2.5 nM WT and the 3KE mutant of NRG1α (175-241) at indicated time points. Cell lysates were analyzed by western blotting. […] Data are shown with signals at time 0 as 1.
MCF-7 cells grown to confluence were serum-starved in serum-free medium overnight, and then treated with WT or 3KE mutant NRG1α (175-241) (2.5 nM) for 5 min to 6 h at 37° C. Cells were washed with ice-cold PBS once, and lysed with the lysis buffer (20 mM HEPES (pH 7.4), 100 mM NaCl, 10% Glycerol, 1% NP-40, 1 mM MgCl2, 5 mM EDTA, 0.5% Triton X-100, 1 mM phenylmethylsulfonyl fluoride, 20 mM NaF, 1 mM Na3VO4, protease inhibitor cocktail (Sigma-Aldrich)). Protein concentrations in the cell lysates were determined using BCA protein assay (Pierce). Equal amounts of cell proteins were analyzed by SDS-PAGE and transferred onto 0.45 μm pore-size polyvinylidene fluoride membrane (Milipore, Birellica, Mass.). The membrane was incubated with primary antibodies, then HRP-conjugated secondary antibody and enhanced chemiluminescence detection reagents (Pierce).

T2 sequence (P21860 20-1342): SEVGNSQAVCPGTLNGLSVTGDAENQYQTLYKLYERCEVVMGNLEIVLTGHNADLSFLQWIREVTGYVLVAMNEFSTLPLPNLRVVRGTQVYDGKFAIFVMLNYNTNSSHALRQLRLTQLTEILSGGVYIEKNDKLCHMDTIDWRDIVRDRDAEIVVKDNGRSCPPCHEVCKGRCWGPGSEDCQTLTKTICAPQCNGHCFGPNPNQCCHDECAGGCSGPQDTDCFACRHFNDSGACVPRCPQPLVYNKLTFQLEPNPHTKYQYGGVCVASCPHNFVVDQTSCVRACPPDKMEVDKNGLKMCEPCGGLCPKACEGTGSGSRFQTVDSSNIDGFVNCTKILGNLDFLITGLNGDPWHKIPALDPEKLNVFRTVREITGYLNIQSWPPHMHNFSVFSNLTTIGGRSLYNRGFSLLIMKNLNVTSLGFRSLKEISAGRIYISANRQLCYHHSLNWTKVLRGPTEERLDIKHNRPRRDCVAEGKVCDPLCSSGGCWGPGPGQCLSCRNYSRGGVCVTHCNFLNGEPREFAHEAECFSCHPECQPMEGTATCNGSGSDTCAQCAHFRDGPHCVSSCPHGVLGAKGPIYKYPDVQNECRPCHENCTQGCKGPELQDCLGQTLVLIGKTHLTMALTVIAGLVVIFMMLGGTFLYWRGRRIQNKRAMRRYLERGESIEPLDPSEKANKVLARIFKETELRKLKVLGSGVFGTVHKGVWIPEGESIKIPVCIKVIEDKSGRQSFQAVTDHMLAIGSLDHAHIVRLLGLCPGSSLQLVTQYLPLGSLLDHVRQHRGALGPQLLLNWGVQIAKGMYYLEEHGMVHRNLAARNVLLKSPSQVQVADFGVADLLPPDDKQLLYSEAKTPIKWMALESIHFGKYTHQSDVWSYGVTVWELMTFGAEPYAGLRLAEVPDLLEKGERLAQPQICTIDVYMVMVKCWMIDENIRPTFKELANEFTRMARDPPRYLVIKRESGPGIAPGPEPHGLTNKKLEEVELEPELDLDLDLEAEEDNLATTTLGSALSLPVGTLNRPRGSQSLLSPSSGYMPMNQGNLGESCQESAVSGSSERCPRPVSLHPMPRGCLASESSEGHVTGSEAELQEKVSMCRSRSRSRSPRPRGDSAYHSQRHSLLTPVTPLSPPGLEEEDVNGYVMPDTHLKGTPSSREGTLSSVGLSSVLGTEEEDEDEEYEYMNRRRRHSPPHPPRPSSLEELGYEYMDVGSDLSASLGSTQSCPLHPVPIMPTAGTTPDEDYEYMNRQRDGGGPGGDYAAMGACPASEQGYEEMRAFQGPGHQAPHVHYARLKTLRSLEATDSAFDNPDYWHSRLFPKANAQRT
T2 sequence (P06756 31-1048): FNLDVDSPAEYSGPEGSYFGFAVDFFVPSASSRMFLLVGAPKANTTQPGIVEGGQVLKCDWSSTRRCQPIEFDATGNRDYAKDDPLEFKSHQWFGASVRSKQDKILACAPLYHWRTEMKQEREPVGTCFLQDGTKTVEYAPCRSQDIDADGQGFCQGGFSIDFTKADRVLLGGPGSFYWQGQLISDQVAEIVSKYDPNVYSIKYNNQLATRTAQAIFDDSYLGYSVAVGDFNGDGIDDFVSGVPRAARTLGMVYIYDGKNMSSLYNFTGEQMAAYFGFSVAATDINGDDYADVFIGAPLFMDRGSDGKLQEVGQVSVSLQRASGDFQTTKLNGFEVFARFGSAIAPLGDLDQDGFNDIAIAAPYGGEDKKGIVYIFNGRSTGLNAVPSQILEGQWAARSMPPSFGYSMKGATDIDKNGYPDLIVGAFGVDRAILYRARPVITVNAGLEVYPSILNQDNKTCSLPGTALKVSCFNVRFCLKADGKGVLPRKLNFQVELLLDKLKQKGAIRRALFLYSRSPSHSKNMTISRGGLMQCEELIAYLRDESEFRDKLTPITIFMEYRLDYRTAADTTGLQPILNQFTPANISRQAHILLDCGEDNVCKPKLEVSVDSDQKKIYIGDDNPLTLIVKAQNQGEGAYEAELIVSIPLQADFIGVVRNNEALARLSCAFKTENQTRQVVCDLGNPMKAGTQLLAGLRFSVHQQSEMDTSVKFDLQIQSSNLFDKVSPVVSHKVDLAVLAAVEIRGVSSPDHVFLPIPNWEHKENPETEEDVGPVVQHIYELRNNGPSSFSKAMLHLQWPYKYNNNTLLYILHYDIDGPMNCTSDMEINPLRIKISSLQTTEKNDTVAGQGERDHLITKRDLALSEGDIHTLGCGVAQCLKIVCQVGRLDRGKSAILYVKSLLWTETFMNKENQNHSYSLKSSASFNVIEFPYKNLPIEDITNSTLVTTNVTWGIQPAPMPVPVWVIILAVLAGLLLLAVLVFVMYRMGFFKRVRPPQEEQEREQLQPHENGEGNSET
T2 sequence (P05106 27-788): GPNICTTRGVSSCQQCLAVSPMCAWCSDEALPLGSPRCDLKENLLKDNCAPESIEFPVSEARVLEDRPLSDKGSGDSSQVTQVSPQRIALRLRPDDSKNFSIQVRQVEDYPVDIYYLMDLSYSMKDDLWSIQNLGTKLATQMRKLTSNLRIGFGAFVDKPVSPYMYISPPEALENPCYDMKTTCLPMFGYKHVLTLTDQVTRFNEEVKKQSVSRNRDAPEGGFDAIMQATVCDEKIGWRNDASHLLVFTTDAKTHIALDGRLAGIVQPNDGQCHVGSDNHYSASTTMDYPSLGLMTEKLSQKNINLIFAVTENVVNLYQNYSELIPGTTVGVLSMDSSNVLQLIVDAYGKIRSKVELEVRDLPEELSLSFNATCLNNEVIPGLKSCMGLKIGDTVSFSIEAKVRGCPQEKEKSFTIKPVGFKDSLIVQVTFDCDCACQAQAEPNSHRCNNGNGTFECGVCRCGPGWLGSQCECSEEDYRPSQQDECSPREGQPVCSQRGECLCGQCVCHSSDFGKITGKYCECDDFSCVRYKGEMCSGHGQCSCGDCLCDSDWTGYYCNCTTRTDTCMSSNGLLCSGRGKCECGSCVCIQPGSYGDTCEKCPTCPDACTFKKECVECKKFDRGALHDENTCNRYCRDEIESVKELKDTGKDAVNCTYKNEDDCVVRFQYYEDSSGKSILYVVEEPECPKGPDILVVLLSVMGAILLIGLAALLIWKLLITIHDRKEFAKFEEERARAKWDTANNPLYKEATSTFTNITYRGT

Molecule | Induction of cell proliferation in B16F10 cells (B-16 F10 Cells) | Suppression of cell proliferation in B16F10 cells (B-16 F10 Cells; P=0.0354 between wt and 3KE+wt) | Induction of proliferation of MCF-7 cells [1] | ERK1/2 activation in (mock-transfected) CHO cells (CHO cells) | ERK1/2 activation in (mock-transfected) CHO cells (CHO cells; listed as 3KE (175-222)) | Adhesion of α6β4-CHO cells to the immobilized protein [2] | Co-precipitation of integrin β3 with ErbB3 in MCF-7 cells (αvβ3-ErbB3 complex) | AKT activation (phosphorylation) in MCF-7 cells (MCF-7 cells) | ERK1/2 activation (phosphorylation) in MCF-7 cells (MCF-7 cells) | ErbB3 phosphorylation in MCF-7 cells (MCF-7 cells) | Levels of ErbB3 phosphorylation in anti-ErbB3 immunoprecipitates of MCF-7 cells (αvβ3-ErbB3 complex; compared with WT NRG1α (175-241))
3KE (175-222): NRG1 (175-222) with Lys181/Lys185/Lys187 mutated to Glu; GTSHLVECAEEEETFCVNGGECFMVKDLSNPSRYLCKCQPGFTGARCT (SEQ ID NO:11) (integrin-binding site within human neuregulin, 3KE mutant, short version) | did not induce them | Suppression of cell proliferation | did not | suppressed | suppressed ERK1/2 activation | did not adhere |  |  |  |  | 
wt NRG1 (175-222): wild type human neuregulin 1 fragment, EGF-like domain, residues 175-222 of SEQ ID NO:4 (SEQ ID NO:3) (GTSHLVKCAEKEKTFCVNGGECFMVKDLSNPSRYLCKCQPGFTGARCT; integrin-binding site within human neuregulin 1 EGF-like region and portion of alpha domain, residues 175-222 of human neuregulin 1 alpha) [reference compound] | induced cell proliferation |  | induced cell proliferation | enhanced ERK1/2 activation |  | adhere |  |  |  |  | 
B1 |  |  |  |  |  |  | increased the amount of integrin β3 protein that co-precipitates with ErbB3 | markedly induced phosphorylation | markedly induced phosphorylation | markedly induced phosphorylation | 
B2 |  |  |  |  |  |  | did not | little or no AKT activation | much lower levels than WT NRG1α (175-241); also recorded: only weakly induced phosphorylation | much lower levels than WT NRG1α (175-241); also recorded: only weakly induced phosphorylation | less
